Key:
[1] = molecular target: recombinant human TLR-2 (Met1 to Leu590) (human, UniProt O60603 21-590, labeled with fluorophore NT-647); assay: MST
[2] = molecular target: recombinant human TLR-4 (Glu24 to Lys631) (human, UniProt O00206 24-631, labeled with fluorophore NT-647); assay: MST
recombinant human TLR-4 (Glu24 to Lys631), sequence (O00206 24-631): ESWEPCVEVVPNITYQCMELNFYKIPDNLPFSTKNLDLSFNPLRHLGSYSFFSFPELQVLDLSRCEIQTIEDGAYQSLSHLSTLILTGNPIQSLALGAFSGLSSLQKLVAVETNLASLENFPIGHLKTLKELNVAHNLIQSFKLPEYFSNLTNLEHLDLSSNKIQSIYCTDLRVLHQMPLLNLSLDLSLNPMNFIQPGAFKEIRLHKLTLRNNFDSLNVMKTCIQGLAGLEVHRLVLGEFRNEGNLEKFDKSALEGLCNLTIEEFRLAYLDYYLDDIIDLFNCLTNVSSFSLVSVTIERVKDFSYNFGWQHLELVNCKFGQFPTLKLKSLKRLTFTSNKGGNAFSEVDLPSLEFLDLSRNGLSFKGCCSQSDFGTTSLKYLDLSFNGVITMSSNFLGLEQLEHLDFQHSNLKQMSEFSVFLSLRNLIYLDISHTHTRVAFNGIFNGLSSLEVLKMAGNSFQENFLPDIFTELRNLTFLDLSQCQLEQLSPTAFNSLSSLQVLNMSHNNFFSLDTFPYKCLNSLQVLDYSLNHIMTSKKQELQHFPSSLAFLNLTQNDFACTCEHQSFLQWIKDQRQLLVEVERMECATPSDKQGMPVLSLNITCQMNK

recombinant human TLR-2 (Met1 to Leu590), sequence (O60603 21-590): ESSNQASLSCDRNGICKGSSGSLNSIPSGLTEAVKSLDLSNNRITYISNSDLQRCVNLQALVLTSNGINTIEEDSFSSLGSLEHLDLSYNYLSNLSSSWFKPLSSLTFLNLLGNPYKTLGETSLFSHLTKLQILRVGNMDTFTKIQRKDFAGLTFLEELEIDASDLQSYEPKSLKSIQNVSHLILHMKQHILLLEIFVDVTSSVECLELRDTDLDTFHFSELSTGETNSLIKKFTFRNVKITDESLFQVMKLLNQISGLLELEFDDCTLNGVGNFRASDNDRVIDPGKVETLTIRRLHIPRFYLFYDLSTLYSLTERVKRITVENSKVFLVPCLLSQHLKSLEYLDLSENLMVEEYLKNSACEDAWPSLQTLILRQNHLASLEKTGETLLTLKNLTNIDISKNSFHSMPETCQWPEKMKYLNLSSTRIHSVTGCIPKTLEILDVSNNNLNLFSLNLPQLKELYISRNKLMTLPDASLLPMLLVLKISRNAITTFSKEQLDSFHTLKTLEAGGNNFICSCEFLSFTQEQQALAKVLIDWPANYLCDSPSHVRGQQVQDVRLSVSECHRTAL

Kd [1]: 31 nM
Kd [2]: 28 nM
B1: human biglycan (soluble biglycan proteoglycan) (natural protein, UniProt P21810 38-368, looked up)
chain: DEEASGADTSGVLDPDSVTPTYSAMCPFGCHCHLRVVQCSDLGLKSVPKEISPDTTLLDLQNNDISELRKDDFKGLQHLYALVLVNNKISKIHEKAFSPLRKLQKLYISKNHLVEIPPNLPSSLVELRIHDNRIRKVPKGVFSGLRNMNCIEMGGNPLENSGFEPGAFDGLKLNYLRISEAKLTGIPKDLPETLNELHLDHNKIQAIELEDLLRYSKLYRLGLGHNQIRMIENGSLSFLPTLRELHLDNNKLARVPSGLPDLKLLQVVYLHSNNITKVGVNDFCPMGFGVKRAYYNGISLFNNPVPYWEVQPATFRCVTDRLAIQFGNYKK
modifications: two chondroitin/dermatan sulfate chains
